Assay results as given in the nanobody polyreactivity screen of Harvey et al. (2022).

Test: yeast display, Sf9 membrane polyspecificity reagent, FACS + sequencing; frameworks hold sequencing errors
Method in brief: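 Polyreactivity labels are assigned by the sorting gate from which each nanobody was recovered. The gates were low and high (top ~1%), set on anti-HA fluorescence for expression and streptavidin fluorescence for reagent binding. Before sorting, galactose-induced (36–48 hours) yeast display cells were stained for 1 hour at 4 °C with 10% biotinylated, detergent-solubilized Sf9 membrane reagent.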

| Sequence | polyreactivity (PSR sort gate) |
| --- | --- |
| QVQLVESGGGLVQAGGSLRLSCAASGITFAYYAMGWSRQAPGKERELVAAIRWSGGDTYYADSVKGRFTISRDNAKNTVYLQMNSLKPEDTAVYYCAADTTWGYDYWGQGTQVTVSS | low polyreactivity |
| QVQLVESGGGLVQAGGSLRLSCAASGFIFDDNAMGWYRQAPGKERELVATITWSTGSTYYADSVKGRFTISRDNAKNTVYLQMNSLKPEDTAVYYCAKESYFYRYYLAYDYWGQGTQVTVSS | low polyreactivity |
| QDQLVESGGGLDQAGGSLRLSCAASGRIFALNAMGWYRQAPGKERELVATIRWRGGSTYYADSVKGRFTISRDYAKNTVYLQMNSLKPEDTAVYYCASYSGNRRTYDYWGQGTQVTVSS | high polyreactivity |
| QVQLVESGGGLVQAGGSLRLSCAASGSIFAGYTMGWSRQAPGKERELVAVISTGGRTKYADSVKGRFTISRDNAKNTVYLQMNSLKPEDTAVYYCAADSRGWSLDGDYWGQGTQVTVSS | low polyreactivity |
| QVQLVESGGGLVQAGGSLRISCAASGFIFHVYAMGWYRQAPGKERELVAAISSGGSTYYADSVKGRFTISRDNAKNTVYLQMNSLKPEDTAVYYCNVARSRYRYRYDYWGQGTQVTVSS | high polyreactivity |
| QVQLVESGGGLVQAGGSLRLSCAASGRIFGFYAMGWYRQAPGKERELVARITLSGGRTYYADSVKGRFTISRDNAKNTVYLQMNSLKPEDTAVYYCAAVSYSKRTWSMNYWGQGTQVTVSS | high polyreactivity |
| QVQLVESGGGLVQAGGSLRLSCAASGRIFTLYDMGWYRQAPGKERELVAAISNSAGSTYYADSVKGRFTISRDNAKNTVYLQMNSLKPEDTAVYYCAAELWSWWGSRDYWGQGTQVTVSS | high polyreactivity |
| QVQLVESGGGLVQAGGSLRLSCAASGRIFGRYAMGWYRQAPGKERELVAVISARGARTYYADSVKGRFTISRDNAKHTVYLQMNSLKPEDTAVYYCAVDQYATDDYWGQGTQVTVSS | high polyreactivity |
| QVQLVESGGGIVQAGGSLRLSCAASGSTLNSYVMGWYRQAPGKERELVATIRSGSSTNYADSVKGRFTISRDNAKYPDYLLMNSLKPEDTAVYSCAADAYSLCYDSWGQGTQVTVSS | low polyreactivity |
| QVQLVESGGGLVQAGGSLRLSWDASGYTFSRNAMGWYRQAPGKERELVAGISWSGSRTYYADSVKGRFTISRDNAKNTVYLQMNSLKPEDTAVYYCAVLAYGPRNARGGTAGYDYWGQGTEVTVSS | high polyreactivity |
| QVQLVESGGGVVQAGGSLRLSCAASGRISRGNAMGWYRPAPGKEREFVAAISWSGDGTYYADSVKGRFTISRDNAKYTVYLQMNSLNPEDTAVYYCNTAVKVERDYWGQGTQVTVSS | low polyreactivity |
| QVQLVESGGGLVQAGGSLRLSCAASGSIFGDYAMGWYRQAPGTDRELVATITWIGGSTYYADSVKGRFTISRDNAKNTVYCQMNSLKPEDTAVYYCAATKYVDVKYYYWGQGTQVTVSS | low polyreactivity |
| QDQLVESGGGLVQARGSLRLSCAASGYIFPFYAMGWYRQAPGKESELVASISSSSGRTNYADSVKGRFTISRDNAMNTVYLQMNSLKPEDTAVYYCSAAYLRYVSTQYHYDYWGQGTQVTVSS | low polyreactivity |
| QVQLVESGGGLVQAGGSLRLSCAASGITFQKNAMGWYRKAPGKERELVAGITWRGSTYYADSVKGRFTISRDNAKNTVYLQMNSLKPEDTAVYYCAADPFYWYRSFRGEYWGKGTQVTVSS | low polyreactivity |
| QVQLVESGGGLVQAGGSLRLSCAASGRILAYYAMGWYRQAPGKERELVAAITSGGRTYYADSVKGRFTISRDNAKNTVYLQMNSLKPEDTPVYYCNAVYGYWYGSWGQGTQVTVSS | high polyreactivity |
| QVQLVESGGALVQAGGSLRLSCAASGSTFSYNAMGWYSQAPGKERELVAAISSRGSSTYYADSVKGRFTISRDNAKNTVYFQINSLKPEDTAVYDCAARSYWGGLRYDYWGQGTQVTVSS | high polyreactivity |
| QVQLVESGGGLVQAGGSLRLSCAASGSTFYRYTMGWYRQAPGKERELVAAITGSGDSTYYADSVKGRFTISRDNAKNTVYLQMNSLKPEDTAVYYCAAANSFYYIATGEYDYWGQGTQVNVSS | high polyreactivity |
